Results taken from the supplement of paper PMC9732359.
± gives the uncertainty stated by the source.

Assay: protein stability index of a GFP-peptide fusion (yeast GPS) (PSI 1-4); higher = more stable; sorted into four equal gates, so the index is relative within each strain
Method in brief: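 Sequencing reads from sorted gates were used to score each peptide. The library consisted of tiled 17-residue yeast protein peptides fused downstream of GFP on a Cherry-expressing plasmid, pooled and carried in yeast. Mid-log cultures in leucine-free medium were split into four equal gates by GFP/Cherry ratio, and each gate's plasmids were PCR-amplified and Illumina-sequenced. The protein stability index adds up, over all gates, the read frequency multiplied by the gate number.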

| Sequence | protein stability index (doa10∆) | protein stability index (pdr5∆) | protein stability index (san1∆) | protein stability index (ubr1∆) |
| --- | --- | --- | --- | --- |
| LFSLLELGEQKCQELVT [RRP46] | 1.97 ± 0.061 | 1.8 ± 0.056 | 1.87 ± 0.093 | 2.1 ± 0.058 |
| ANNIVNIVSDAGANDTS [GRR1] | 3.2 ± 0.12 | 3.14 ± 0.074 | 3.64 ± 0.1 | 3.13 ± 0.094 |
| SGVMDKSVLGDGKKHSV [RPO31] | 3.73 ± 0.21 | 3.71 ± 0.28 | 3.31 ± 0.2 |  |
| NFEAVFERLVPRGTAKL [SMC3] | 2.93 ± 0.15 | 2.84 ± 0.16 |  | 2.83 ± 0.042 |
| KKLKPIVAKYDPPIIIF [PRP28] | 2.94 ± 0.069 | 2.59 ± 0.075 | 2.73 ± 0.086 | 2.37 ± 0.052 |
| TEKNREIYKQLNDRQEE [YIL149C/MLP2] | 3.42 ± 0.073 | 3.41 ± 0.063 | 3.57 ± 0.042 | 3.12 ± 0.057 |
| YDLVDNKGAKAEDVALN [NAS6] | 2.8 ± 0.14 | 3.39 ± 0.27 | 2.87 ± 0.12 | 3.07 ± 0.071 |
| PYPKSRYNRAVPDSKIR [RPL10] | 3.03 ± 0.049 | 3.19 ± 0.052 | 3.05 ± 0.043 | 3.04 ± 0.048 |
| QLLMGDIPELSFFHQSN [RPN3] | 2.43 ± 0.067 | 2.2 ± 0.054 | 2.39 ± 0.077 | 2.62 ± 0.039 |
| EKDAVSVFGFRTQFGGG [RPS24A] | 1.92 ± 0.068 | 2.09 ± 0.094 | 2 ± 0.14 | 1.93 ± 0.064 |
| VAKVDEEGRAIPGEYIT [RPS21B] | 2.5 ± 0.095 | 2.52 ± 0.12 | 2.44 ± 0.1 | 2.77 ± 0.065 |
| FGINTNTTKTADTKAPT [YLR335W/NUP2] | 3.4 ± 0.085 | 3.41 ± 0.073 | 3.19 ± 0.07 | 3.5 ± 0.048 |
| YPSKTLKTDGVRAVSIT [FAS2] | 2.12 ± 0.078 | 2.3 ± 0.087 | 2 ± 0.091 | 2.23 ± 0.061 |
| MVSHKTARGKAALERLK [RPL16B] | 2.92 ± 0.21 | 2.74 ± 0.15 | 2.47 ± 0.21 | 2.21 ± 0.16 |
| DFKNEESLSEEHASLLV [MED8] | 3.35 ± 0.11 | 3.12 ± 0.16 | 3.08 ± 0.06 | 3.26 ± 0.063 |
| SSNPLGITGNLDRIPMH [COB] | 2.62 ± 0.098 | 2.52 ± 0.077 | 2.44 ± 0.065 | 2.49 ± 0.094 |
| SLYTNTSRKALEEVSLK [RPL3] |  | 2.38 ± 0.13 | 2.33 ± 0.14 | 1.83 ± 0.19 |
| TATYNDNMSEEQWLRQF [SNF2] | 3.28 ± 0.092 | 3.33 ± 0.12 | 3.27 ± 0.1 | 3.5 ± 0.089 |
| TAKLQMRRFILGTTEGD [RPN14] | 1.41 ± 0.27 | 1.45 ± 0.095 |  |  |
| EILEKCAEGIFVVKLDT [GAL11] |  |  |  | 3.72 ± 0.28 |
| DDRGPVLESIVARTFWA [BRR2] | 2.67 ± 0.09 | 2.07 ± 0.057 | 2.9 ± 0.11 | 2.85 ± 0.077 |
| EESWEKVVEFAITHMID [SCL1] | 2.62 ± 0.087 | 2.92 ± 0.098 | 3.06 ± 0.083 | 2.91 ± 0.07 |
| APGTEAGIVPVSANTPK [SWI1] | 3.06 ± 0.053 | 2.94 ± 0.065 | 3.08 ± 0.053 | 3.18 ± 0.054 |
| EPPGSNTSFSFTKPPAN [YOR098C/NUP1] | 3.12 ± 0.07 | 3.21 ± 0.057 | 3 ± 0.039 | 2.96 ± 0.053 |
| IAARRTGLLRGSQKTQD [RPL2A] | 2.83 ± 0.095 | 2.73 ± 0.064 | 2.66 ± 0.075 | 2.68 ± 0.079 |

| Sequence | protein stability index (doa10∆) | protein stability index (pdr5∆) | protein stability index (san1∆) | protein stability index (ubr1∆) |
| --- | --- | --- | --- | --- |
| SWNESEDTLSGYDPIVS [PRP28] | 3.04 ± 0.12 | 3.14 ± 0.12 | 3.19 ± 0.076 | 3.44 ± 0.06 |
| SKQPNSAIRKCVRVQLI [RPS23A] | 2.69 ± 0.078 | 2.77 ± 0.064 | 1.79 ± 0.096 | 2.96 ± 0.045 |
| SFLHVDDKLAYIRVNHA [POP8] | 2.67 ± 0.08 | 2.29 ± 0.068 | 2.21 ± 0.11 | 2.56 ± 0.061 |
| INLAMNESSLALEFVSL [SRB4] | 1.44 ± 0.088 | 1.41 ± 0.074 | 1.81 ± 0.12 | 1.92 ± 0.064 |
| AVIAAIMQEAGLRAVRK [RPT3] |  | 1.15 ± 0.19 |  |  |
| LELTTGATYRGKLVESE [SMD3] | 3.29 ± 0.079 | 3.26 ± 0.084 | 2.94 ± 0.11 | 3.38 ± 0.057 |
| GLVHDLCHPKKEKYGLA [SMC1] | 2.59 ± 0.11 | 2.84 ± 0.12 | 2.81 ± 0.29 | 2.17 ± 0.083 |
| GDKVVVTIWYRAPELLL [SSN3] | 1.74 ± 0.058 | 1.78 ± 0.072 | 1.74 ± 0.068 | 2.05 ± 0.044 |
| LDTLPSEFDSRVKAMEV [RPT5] | 2.93 ± 0.085 | 3.11 ± 0.098 | 3.2 ± 0.068 | 3.36 ± 0.1 |
| LKCAERQLTSMEFSNLY [NUT1] | 2.06 ± 0.054 | 1.87 ± 0.034 | 1.65 ± 0.072 | 2.17 ± 0.032 |
| ILKWVQWSRIVLQNVFK [MED1] | 2.98 ± 0.087 | 3.13 ± 0.12 | 3.29 ± 0.067 | 3.07 ± 0.068 |
| SEILSFDPVYTTVITVF [YML103C/NUP188] | 2.08 ± 0.059 | 2.27 ± 0.051 | 1.6 ± 0.11 | 1.62 ± 0.048 |
| TGGGLFGSKPTGATSLF [YGL172W/NUP49] | 3.45 ± 0.11 | 3.57 ± 0.1 | 3.56 ± 0.045 | 3.62 ± 0.074 |
| LSATGTRSAKKMVIAEL [YJR042W/NUP85] |  |  | 2.97 ± 0.15 |  |
| ASMLGLFVFTEGWPKFQ [QCR10] | 1.79 ± 0.1 | 1.96 ± 0.099 |  | 2.82 ± 0.2 |
| NLPILKNHFRKHWQERV [RPL13A] | 2.33 ± 0.085 | 2.83 ± 0.073 | 2.31 ± 0.1 | 1.87 ± 0.089 |
| AQGLLHLGKGTMTMDVF [RPN1] | 2.47 ± 0.065 | 2.61 ± 0.066 | 2.15 ± 0.081 | 1.89 ± 0.058 |
| LVVIRFGRKNDRQCMIM [DIB1] | 2.4 ± 0.061 | 2.55 ± 0.055 | 2.33 ± 0.073 | 2.79 ± 0.038 |
| AMSLYHSPFPFNRTKGK [PRP8] | 2.11 ± 0.04 | 2.08 ± 0.047 | 1.65 ± 0.07 | 1.98 ± 0.03 |
| KKKTTLEDFENFKGLAK [YIL149C/MLP2] | 2.82 ± 0.031 | 2.99 ± 0.03 | 2.957 ± 0.024 | 2.909 ± 0.026 |
| SCGEEEFFSTNWLSIFN [REC8] | 3.33 ± 0.098 | 3.29 ± 0.073 | 3.34 ± 0.1 | 2.96 ± 0.087 |
| FEYLATVMYQRRSKMNP [PRE4] | 2.11 ± 0.12 | 2.72 ± 0.21 | 2.6 ± 0.15 | 2.57 ± 0.28 |
| SKEQIHGSIIILGMLSL [YCS4] | 2.45 ± 0.053 | 2.32 ± 0.05 | 2.72 ± 0.049 | 2.82 ± 0.045 |
| LFVISTEISPMAGSQFE [RRP45] | 1.89 ± 0.08 | 2.21 ± 0.06 | 2.8 ± 0.077 | 1.2 ± 0.11 |
| ALEYIGAKVKTMRRQKL [RET1] | 2.1 ± 0.069 | 2.48 ± 0.097 | 2.22 ± 0.089 | 2.19 ± 0.066 |

| Sequence | protein stability index (doa10∆) | protein stability index (pdr5∆) | protein stability index (san1∆) | protein stability index (ubr1∆) |
| --- | --- | --- | --- | --- |
| VSFYFEDGTIESYNQND [SIN4] | 2.2 ± 0.083 | 2.34 ± 0.1 | 2.41 ± 0.076 | 2.92 ± 0.084 |
| PKSTAPIFSFGKQEENG [YOR098C/NUP1] | 2.24 ± 0.053 | 2.75 ± 0.069 | 2.49 ± 0.059 | 2.38 ± 0.043 |
| ALIDAGISMFDYISGIS [SKI6] | 1.48 ± 0.064 | 1.5 ± 0.046 | 2.3 ± 0.099 | 1.68 ± 0.037 |
| SALTSPTDSSKILQKRS [SIR3] | 2.99 ± 0.053 | 3.12 ± 0.054 | 2.92 ± 0.047 | 3.04 ± 0.039 |
| HYLFNTFTFTAHMGVLL [SWP82] | 1.69 ± 0.039 | 1.68 ± 0.036 | 1.39 ± 0.072 | 1.51 ± 0.024 |
| QRQYKVQLLLHINSILL [SNF11] | 1.88 ± 0.082 | 1.84 ± 0.061 | 1.89 ± 0.098 | 1.96 ± 0.057 |
| NHFSLSYKDSGLWGFST [COR1] | 2.96 ± 0.077 | 3.23 ± 0.073 | 3.15 ± 0.046 | 3.02 ± 0.054 |
| QKRIENGGNSVITLAEY [SRP68] | 2.47 ± 0.076 | 2.89 ± 0.081 | 2.9 ± 0.069 | 3.22 ± 0.1 |
| GFSPTSPTYSPTSPAYS [RPO21] | 2.81 ± 0.052 | 2.74 ± 0.043 | 2.94 ± 0.051 | 2.39 ± 0.038 |
| VHTIIAGLDEDGKGAVY [PRE7] | 3.63 ± 0.16 | 3.41 ± 0.099 | 3.35 ± 0.093 | 3.32 ± 0.093 |
| QDRIQDVKLVLASNFDN [MED1] | 2.56 ± 0.057 | 2.67 ± 0.06 | 1.88 ± 0.08 | 2.21 ± 0.036 |
| LSGNPLTSVTNDICSVE [SIR4] | 2.54 ± 0.068 | 2.95 ± 0.064 | 3.09 ± 0.058 | 2.96 ± 0.062 |
| TNGNNAGGGSNKSSVRP [MED6] | 3.19 ± 0.14 | 3.47 ± 0.097 | 2.77 ± 0.1 | 3.11 ± 0.088 |
| YIKNILEAPVKSIENPT [YLR335W/NUP2] | 2.38 ± 0.061 | 2.33 ± 0.063 | 2.19 ± 0.084 | 2.13 ± 0.057 |
| DYSKPNLPPHYALFLKA [SSN2] | 2.15 ± 0.07 | 2.03 ± 0.073 | 1.78 ± 0.11 | 1.99 ± 0.056 |
| NNVAYGKKRFRVVTVDG [SMC4] | 1.93 ± 0.11 | 2.1 ± 0.13 | 1.78 ± 0.13 | 1.83 ± 0.069 |
| LRSTIANLLQINVDNDP [YML103C/NUP188] | 2.21 ± 0.1 | 1.4 ± 0.13 |  | 1.15 ± 0.15 |
| LRLLLLLIEFPYLPKHY [YJR042W/NUP85] | 1.81 ± 0.052 | 1.72 ± 0.054 | 1.55 ± 0.062 | 1.76 ± 0.047 |
| RNQEKKMEKKKSSSLSL [SNM1] | 3.53 ± 0.22 | 3.5 ± 0.16 | 2.68 ± 0.22 | 2.98 ± 0.1 |
| RASDLRMTIRTRGRSAT [RRP43] | 2.93 ± 0.1 | 2.36 ± 0.093 | 2.22 ± 0.17 | 2.33 ± 0.11 |
| NISKSRAKPVTNSSILL [RRP6] | 2.14 ± 0.063 | 2.23 ± 0.065 | 2.23 ± 0.1 | 2.38 ± 0.097 |
| VPATAAPGTEAGIVPVS [SWI1] | 3.1 ± 0.069 | 3 ± 0.084 | 3.14 ± 0.066 | 3.15 ± 0.07 |
| HEAYSIIEKITDQILQL [RRP45] | 2.55 ± 0.22 | 2.31 ± 0.2 |  |  |
| YQSRGIDAMKAVAEAYN [RPN6] | 2.87 ± 0.088 | 3.1 ± 0.083 | 2.81 ± 0.077 | 2.65 ± 0.045 |
| VPPMKLAYSKIVNGQTF [YMR129W/POM152] | 1.37 ± 0.068 | 1.48 ± 0.072 | 1.09 ± 0.12 | 1.65 ± 0.053 |
